Legend:
HeLa Kyoto [1] = assay: thermal stability score vs G1/S (z-score of summed log2 fold changes over temperatures); higher = more thermally stable than in G1/S
HeLa Kyoto [2] = assay: solubility in G1/S (NP-40 vs SDS abundance) (log2 ratio); higher = more soluble; conditions: cell cycle stage: G1/S
HeLa Kyoto [3] = assay: melting temperature (median over replicates), in situ; higher = more thermally stable
HeLa Kyoto [4] = assay: solubility change mitosis vs G1/S (difference of NP-40 vs SDS log2 ratios) (log2 ratio difference); higher = more soluble in mitosis
[5] = cell cycle stage: early G1 (4.5 h after nocodazole release)
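Throughout, for melting temperature (median over replicates), in situ: HeLa Kyoto cells synchronized by double thymidine or nocodazole block, proteins quantified by TMT10plex mass spectrometry, three independent biological replicates.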
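Throughout, for solubility change mitosis vs G1/S (difference of NP-40 vs SDS log2 ratios): synchronized HeLa Kyoto cells (double thymidine block for G1/S, nocodazole release for mitosis), protein amounts in NP-40 versus SDS lysates quantified by mass spectrometry, three biological replicates.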
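Throughout, for solubility in G1/S (NP-40 vs SDS abundance): HeLa Kyoto cells arrested at G1/S by double thymidine block, proteins quantified by TMT10plex mass spectrometry in mild NP-40 versus SDS extracts, three biological replicates.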
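Throughout, for thermal stability score vs G1/S (z-score of summed log2 fold changes over temperatures): synchronized HeLa Kyoto cells, proteins quantified by TMT10plex mass spectrometry, three biological replicates, mitosis taken 0.5 h after nocodazole release, G1/S directly after double thymidine block.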

| Sequence | thermal stability score (HeLa Kyoto [1]; [5]) | thermal stability score (HeLa Kyoto [1]; cell cycle stage: mitosis) | solubility in G1/S (log2) (HeLa Kyoto [2]) | melting temperature (HeLa Kyoto [3]; cell cycle stage: G1/S) | melting temperature (HeLa Kyoto [3]; cell cycle stage: mitosis) | solubility change mitosis (log2) (HeLa Kyoto [4]) |
| --- | --- | --- | --- | --- | --- | --- |
| MRVAVAGCCHGELDKIYETLALAERRGPGPVDLLLCCGDFQAVRNEADLRCMAVPPKYRHMQTFYRYYSGEKKAPVLTLFIGGNHEASNHLQELPYGGWVAPNIYYLGLAGVVKYRGVRIGGISGIFKSHDYRKGHFECPPYNSSTIRSIYHVRNIEVYKLKQLKQPIDIFLSHDWPRSIYHYGNKKQLLKTKSFFRQEVENNTLGSPAASELLEHLKPTYWFSAHLHVKFAALMQHQAKDKGQTARATKFLALDKCLPHRDFLQILEIEHDPSAPDYLEYDIEWLTILRATDDLINVTGRLWNMPENNGLHARWDYSATEEGMKEVLEKLNHDLKVPCNFSVTAACYDPSKPQTQMQLIHRINPQTTEFCAQLGIIDINVRLQKSKEEHHVCGEYEEQDDVESNDSGEDQSEYNTDTSALSSINPDEIMLDEEEDEDSIVSAHSGMNTPSVEPSDQASEFSASFSDVRILPGSMIVSSDDTVDSTIDREGKPGGTVESGNGEDLTKVPLKRLSDEHEPEQRKKIKRRNQAIYAAVDDDDDDAA [DBR1] | 1.33 | 3.28 | -0.0568 | 54 °C | 55.1 °C | -0.212 |
| MRVESGSAQERGILLESLSTLLEKTTASHEGRAPGNRELTDLLPPEVCSLLNPAAIYANNEISLRDVEVYGFDYDYTLAQYADALHPEIFSTARDILIEHYKYPEGIRKYDYNPSFAIRGLHYDIQKSLLMKIDAFHYVQLGTAYRGLQPVPDEEVIELYGGTQHIPLYQMSGFYGKGPSIKQFMDIFSLPEMALLSCVVDYFLGHSLEFDQAHLYKDVTDAIRDVHVKGLMYQWIEQDMEKYILRGDETFAVLSRLVAHGKQLFLITNSPFSFVDKGMRHMVGPDWRQLFDVVIVQADKPSFFTDRRKPFRKLDEKGSLQWDRITRLEKGKIYRQGNLFDFLRLTEWRGPRVLYFGDHLYSDLADLMLRHGWRTGAIIPELEREIRIINTEQYMHSLTWQQALTGLLERMQTYQDAESRQVLAAWMKERQELRCITKALFNAQFGSIFRTFHNPTYFSRRLVRFSDLYMASLSCLLNYRVDFTFYPRRTPLQHEAPLWMDQLCTGCMKTPFLGDMAHIR [NT5DC2] | -0.133 | 0.934 | -0.284 | 53.1 °C | 52.6 °C | -0.0879 |
| MRWILFIGALIGSSICGQEKFFGDQVLRINVRNGDEISKLSQLVNSNNLKLNFWKSPSSFNRPVDVLVPSVSLQAFKSFLRSQGLEYAVTIEDLQALLDNEDDEMQHNEGQERSSNNFNYGAYHSLEAIYHEMDNIAADFPDLARRVKIGHSFENRPMYVLKFSTGKGVRRPAVWLNAGIHSREWISQATAIWTARKIVSDYQRDPAITSILEKMDIFLLPVANPDGYVYTQTQNRLWRKTRSRNPGSSCIGADPNRNWNASFAGKGASDNPCSEVYHGPHANSEVEVKSVVDFIQKHGNFKGFIDLHSYSQLLMYPYGYSVKKAPDAEELDKVARLAAKALASVSGTEYQVGPTCTTVYPASGSSIDWAYDNGIKFAFTFELRDTGTYGFLLPANQIIPTAEETWLGLKTIMEHVRDNLY [CPA4] | 1.94 | 1.93 | 0.184 | 57.4 °C | 58.7 °C | 0.0829 |
| MSADAAAGAPLPRLCCLEKGPNGYGFHLHGEKGKLGQYIRLVEPGSPAEKAGLLAGDRLVEVNGENVEKETHQQVVSRIRAALNAVRLLVVDPETDEQLQKLGVQVREELLRAQEAPGQAEPPAAAEVQGAGNENEPREADKSHPEQRELRPRLCTMKKGPSGYGFNLHSDKSKPGQFIRSVDPDSPAEASGLRAQDRIVEVNGVCMEGKQHGDVVSAIRAGGDETKLLVVDRETDEFFKKCRVIPSQEHLNGPLPVPFTNGEIQKENSREALAEAALESPRPALVRSASSDTSEELNSQDSPPKQDSTAPSSTSSSDPILDFNISLAMAKERAHQKRSSKRAPQMDWSKKNELFSNL [SLC9A3R1] | -1.17 | -0.944 | 0.536 | 56.5 °C | 57.1 °C | -0.0214 |
| MSADGAEADGSTQVTVEEPVQQPSVVDRVASMPLISSTCDMVSAAYASTKESYPHIKTVCDAAEKGVRTLTAAAVSGAQPILSKLEPQIASASEYAHRGLDKLEENLPILQQPTEKVLADTKELVSSKVSGAQEMVSSAKDTVATQLSEAVDATRGAVQSGVDKTKSVVTGGVQSVMGSRLGQMVLSGVDTVLGKSEEWADNHLPLTDAELARIATSLDGFDVASVQQQRQEQSYFVRLGSLSERLRQHAYEHSLGKLRATKQRAQEALLQLSQVLSLMETVKQGVDQKLVEGQEKLHQMWLSWNQKQLQGPEKEPPKPEQVESRALTMFRDIAQQLQATCTSLGSSIQGLPTNVKDQVQQARRQVEDLQATFSSIHSFQDLSSSILAQSRERVASAREALDHMVEYVAQNTPVTWLVGPFAPGITEKAPEEKK [PLIN3] | -0.144 | 0.126 | 0.715 | 56.7 °C | 57.3 °C | 0.0467 |

Source: the supplement of paper PMC5998384
